{"source": "patent US7968093B2", "about": "“Fully human antibodies directed against the human insulin-like growth factor-1 receptor” (ImClone LLC, priority 2003, dated 2011)", "key": {"[1]": {"target": "T1, IGF-IR on MCF7 cells (Homo sapiens, UniProt P08069)", "T1 construct": "endogenous in cells", "test": "Internalization of 125I-A12 after binding to IGF-IR", "type": "cell-based", "settings": "37° C., 30-180 minutes", "experimental": "Antibody A12 was radio-iodinated with ^125iodine using IODO-beads (Pierce) according to manufacturer's instructions. MCF7 human breast cancer cells were plated into 6-well plates and cultured overnight to 50% confluence. One microgram of ^125I-A12 was added to each well and incubated at 37° C. or kept on ice at 4° C. Plates were incubated for 30 minutes, 90 minutes, or 180 minutes and each time point performed in triplicate. The culture at 4° C. was held for 180 minutes. At each time point, wells were washed 1× w/PBS, then stripped for 5 minutes with 100 mM glycine-HCl, 2M urea, pH 2.5. The stripped material, representing membrane bound antibody was kept on ice for counting. Wells were then washed 3 times with PBS and cells solubilized with 1N NaOH/1% TritonX100. The solubilized fraction represented the internalized antibody. Stripped and solubilized fractions were then read on a gamma counter and plotted with standard deviation."}, "[2]": {"target": "IGF-IR (Homo sapiens, UniProt P08069)", "test": "BIAcore binding kinetics on immobilized soluble IGF-IR", "set-up": "recombinant extracellular portion of human IGF-IR was used to screen", "settings": "full IgG, BIACORE 3000", "experimental": "Binding kinetic analysis was performed on 2F8 IgG using a BIAcore unit.\nBinding results were determined by human IGF-IR ELISA and represent the concentration of titered antibody necessary to achieve 50% binding relative to saturation. Blocking results represent the level of antibody necessary to inhibit 50% binding of ^125I-IGF-I ligand to immobilized human IGF-IR. Affinity was determined by BIAcore analysis according to manufacturer's specifications (Pharmacia BIACORE 3000). Soluble IGF-IR was immobilized on the sensor chips and antibody binding kinetics determined."}}}
{"substance": "A12: fully human IgG1 anti-IGF-IR antibody, lambda light chain; VH SEQ ID NO:2, VL SEQ ID NO:10; affinity matured from 2F8", "values": [{"measurement": "internalization of labeled antibody", "setting": "[1]", "value": "rapidly internalized"}, {"measurement": "Affinity Koff", "setting": "[2]", "value": "Koff = 3.0 × 10^−5"}, {"measurement": "Affinity Kon", "setting": "[2]", "value": "Kon = 7.2 × 10^5"}, {"measurement": "Kd", "setting": "[2]; read-out: Affinity KD", "value": 0.041, "unit": "nM"}]}
